Experimental data: US20180016318A1 (Eli Lilly, published 2018)
Starred links: 1 amine or outer side, 2 acyl side, 3 side chain; linkers in the order of their positions; H or OH if unused. Non-standard residues stand in square brackets, D forms with d. Groups on a side chain read outwards from the residue. No end group written: not given here. *: point of attachment. C20 diacid = O=C(O)CCCCCCCCCCCCCCCCCCC(=O)*; C18 diacid = O=C(O)CCCCCCCCCCCCCCCCC(=O)*; γGlu = O=C(O)[C@H](CCC(=O)[*:2])N[*:1]; NMeI = CC[C@H](C)[C@H](NC)C(=O)O; AEEA = NCCOCCOCC(=O)O

T1: human CRHR1 (corticotropin releasing hormone receptor-1) (human, UniProt P34998 24-415)
T1 sequence (looked up): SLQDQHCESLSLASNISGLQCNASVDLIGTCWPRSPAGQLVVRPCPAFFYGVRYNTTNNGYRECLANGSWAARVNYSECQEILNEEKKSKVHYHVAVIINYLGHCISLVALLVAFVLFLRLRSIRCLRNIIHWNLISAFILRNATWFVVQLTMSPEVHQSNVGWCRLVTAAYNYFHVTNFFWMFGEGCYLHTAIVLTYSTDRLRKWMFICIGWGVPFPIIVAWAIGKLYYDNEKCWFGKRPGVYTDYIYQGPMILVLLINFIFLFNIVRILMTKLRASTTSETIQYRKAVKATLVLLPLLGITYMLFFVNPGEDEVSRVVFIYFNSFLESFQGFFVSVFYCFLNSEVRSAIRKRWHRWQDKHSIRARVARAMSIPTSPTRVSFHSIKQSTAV

B1: Example 1 (SEQ ID NO: 1) (peptide)
peptide: Ac-IVLSLDVPIGLLQILLEQEKQEKEKQQAK([AEEA-AEEA-γGlu-γGlu-C18 diacid])TNAQILAQV-NH2
SMILES: CC[C@H](C)[C@H](NC(C)=O)C(=O)N[C@H](C(=O)N[C@@H](CC(C)C)C(=O)N[C@@H](CO)C(=O)N[C@@H](CC(C)C)C(=O)N[C@@H](CC(=O)O)C(=O)N[C@H](C(=O)N1CCC[C@H]1C(=O)N[C@H](C(=O)NCC(=O)N[C@@H](CC(C)C)C(=O)N[C@@H](CC(C)C)C(=O)N[C@@H](CCC(N)=O)C(=O)N[C@H](C(=O)N[C@@H](CC(C)C)C(=O)N[C@@H](CC(C)C)C(=O)N[C@@H](CCC(=O)O)C(=O)N[C@@H](CCC(N)=O)C(=O)N[C@@H](CCC(=O)O)C(=O)N[C@@H](CCCCN)C(=O)N[C@@H](CCC(N)=O)C(=O)N[C@@H](CCC(=O)O)C(=O)N[C@@H](CCCCN)C(=O)N[C@@H](CCC(=O)O)C(=O)N[C@@H](CCCCN)C(=O)N[C@@H](CCC(N)=O)C(=O)N[C@@H](CCC(N)=O)C(=O)N[C@@H](C)C(=O)N[C@@H](CCCCNC(=O)COCCOCCNC(=O)COCCOCCNC(=O)CC[C@H](NC(=O)CC[C@H](NC(=O)CCCCCCCCCCCCCCCCC(=O)O)C(=O)O)C(=O)O)C(=O)N[C@H](C(=O)N[C@@H](CC(N)=O)C(=O)N[C@@H](C)C(=O)N[C@@H](CCC(N)=O)C(=O)N[C@H](C(=O)N[C@@H](CC(C)C)C(=O)N[C@@H](C)C(=O)N[C@@H](CCC(N)=O)C(=O)N[C@H](C(N)=O)C(C)C)[C@@H](C)CC)[C@@H](C)O)[C@@H](C)CC)[C@@H](C)CC)C(C)C)C(C)C
B2: Example 2 (SEQ ID NO: 2) (peptide)
peptide: Ac-IVLSLDVPIGLLQILLEQEKQEKEKQQAK([AEEA-AEEA-γGlu-γGlu-C20 diacid])TNAQILAQV-NH2
B3: Example 6 (SEQ ID NO: 6) (peptide)
peptide: [NMeI]VLSLDVPIGLLQILLEQEKQEKEKQQAK([AEEA-AEEA-γGlu-γGlu-C20 diacid])TNAEILAQV-NH2
modifications: N-terminus assumed
SMILES: CC[C@H](C)[C@H](NC)C(=O)N[C@H](C(=O)N[C@@H](CC(C)C)C(=O)N[C@@H](CO)C(=O)N[C@@H](CC(C)C)C(=O)N[C@@H](CC(=O)O)C(=O)N[C@H](C(=O)N1CCC[C@H]1C(=O)N[C@H](C(=O)NCC(=O)N[C@@H](CC(C)C)C(=O)N[C@@H](CC(C)C)C(=O)N[C@@H](CCC(N)=O)C(=O)N[C@H](C(=O)N[C@@H](CC(C)C)C(=O)N[C@@H](CC(C)C)C(=O)N[C@@H](CCC(=O)O)C(=O)N[C@@H](CCC(N)=O)C(=O)N[C@@H](CCC(=O)O)C(=O)N[C@@H](CCCCN)C(=O)N[C@@H](CCC(N)=O)C(=O)N[C@@H](CCC(=O)O)C(=O)N[C@@H](CCCCN)C(=O)N[C@@H](CCC(=O)O)C(=O)N[C@@H](CCCCN)C(=O)N[C@@H](CCC(N)=O)C(=O)N[C@@H](CCC(N)=O)C(=O)N[C@@H](C)C(=O)N[C@@H](CCCCNC(=O)COCCOCCNC(=O)COCCOCCNC(=O)CC[C@H](NC(=O)CC[C@H](NC(=O)CCCCCCCCCCCCCCCCCCC(=O)O)C(=O)O)C(=O)O)C(=O)N[C@H](C(=O)N[C@@H](CC(N)=O)C(=O)N[C@@H](C)C(=O)N[C@@H](CCC(=O)O)C(=O)N[C@H](C(=O)N[C@@H](CC(C)C)C(=O)N[C@@H](C)C(=O)N[C@@H](CCC(N)=O)C(=O)N[C@H](C(N)=O)C(C)C)[C@@H](C)CC)[C@@H](C)O)[C@@H](C)CC)[C@@H](C)CC)C(C)C)C(C)C
B4: Example 5 (SEQ ID NO: 5) (peptide)
peptide: [NMeI]VTSLDVPIGLLQILLEQEKQEKEKQQAK([AEEA-AEEA-γGlu-γGlu-C20 diacid])TNAEILAQV-NH2
B5: Example 7 (SEQ ID NO: 7) (peptide)
peptide: [NMeI]VTSLDVPIGLLQILIEQEKQEKEKQQAK([AEEA-AEEA-γGlu-γGlu-C20 diacid])TNAEILAQV-NH2
modifications: N-terminus assumed
SMILES: CC[C@H](C)[C@H](NC)C(=O)N[C@H](C(=O)N[C@H](C(=O)N[C@@H](CO)C(=O)N[C@@H](CC(C)C)C(=O)N[C@@H](CC(=O)O)C(=O)N[C@H](C(=O)N1CCC[C@H]1C(=O)N[C@H](C(=O)NCC(=O)N[C@@H](CC(C)C)C(=O)N[C@@H](CC(C)C)C(=O)N[C@@H](CCC(N)=O)C(=O)N[C@H](C(=O)N[C@@H](CC(C)C)C(=O)N[C@H](C(=O)N[C@@H](CCC(=O)O)C(=O)N[C@@H](CCC(N)=O)C(=O)N[C@@H](CCC(=O)O)C(=O)N[C@@H](CCCCN)C(=O)N[C@@H](CCC(N)=O)C(=O)N[C@@H](CCC(=O)O)C(=O)N[C@@H](CCCCN)C(=O)N[C@@H](CCC(=O)O)C(=O)N[C@@H](CCCCN)C(=O)N[C@@H](CCC(N)=O)C(=O)N[C@@H](CCC(N)=O)C(=O)N[C@@H](C)C(=O)N[C@@H](CCCCNC(=O)COCCOCCNC(=O)COCCOCCNC(=O)CC[C@H](NC(=O)CC[C@H](NC(=O)CCCCCCCCCCCCCCCCCCC(=O)O)C(=O)O)C(=O)O)C(=O)N[C@H](C(=O)N[C@@H](CC(N)=O)C(=O)N[C@@H](C)C(=O)N[C@@H](CCC(=O)O)C(=O)N[C@H](C(=O)N[C@@H](CC(C)C)C(=O)N[C@@H](C)C(=O)N[C@@H](CCC(N)=O)C(=O)N[C@H](C(N)=O)C(C)C)[C@@H](C)CC)[C@@H](C)O)[C@@H](C)CC)[C@@H](C)CC)[C@@H](C)CC)C(C)C)[C@@H](C)O)C(C)C
B6: human UCN2 (urocortin-2) (ligand)
peptide: IVLSLDVPIGLLQILLEQARARAAREQATTNARILARV-NH2
B7: Example 4 (SEQ ID NO: 4) (peptide)
peptide: [NMeI]VLSLDVPIGLLQILLEQEKQEKEKQQAK([AEEA-AEEA-γGlu-γGlu-C20 diacid])TNAQILAQV-NH2
B8: Example 3 (SEQ ID NO: 3) (peptide)
peptide: [NMeI]VLSLDVPIGLLQILLEQEKQEKEKQQAK([AEEA-AEEA-γGlu-γGlu-C18 diacid])TNAQILAQV-NH2
modifications: N-terminus assumed
SMILES: CC[C@H](C)[C@H](NC)C(=O)N[C@H](C(=O)N[C@@H](CC(C)C)C(=O)N[C@@H](CO)C(=O)N[C@@H](CC(C)C)C(=O)N[C@@H](CC(=O)O)C(=O)N[C@H](C(=O)N1CCC[C@H]1C(=O)N[C@H](C(=O)NCC(=O)N[C@@H](CC(C)C)C(=O)N[C@@H](CC(C)C)C(=O)N[C@@H](CCC(N)=O)C(=O)N[C@H](C(=O)N[C@@H](CC(C)C)C(=O)N[C@@H](CC(C)C)C(=O)N[C@@H](CCC(=O)O)C(=O)N[C@@H](CCC(N)=O)C(=O)N[C@@H](CCC(=O)O)C(=O)N[C@@H](CCCCN)C(=O)N[C@@H](CCC(N)=O)C(=O)N[C@@H](CCC(=O)O)C(=O)N[C@@H](CCCCN)C(=O)N[C@@H](CCC(=O)O)C(=O)N[C@@H](CCCCN)C(=O)N[C@@H](CCC(N)=O)C(=O)N[C@@H](CCC(N)=O)C(=O)N[C@@H](C)C(=O)N[C@@H](CCCCNC(=O)COCCOCCNC(=O)COCCOCCNC(=O)CC[C@H](NC(=O)CC[C@H](NC(=O)CCCCCCCCCCCCCCCCC(=O)O)C(=O)O)C(=O)O)C(=O)N[C@H](C(=O)N[C@@H](CC(N)=O)C(=O)N[C@@H](C)C(=O)N[C@@H](CCC(N)=O)C(=O)N[C@H](C(=O)N[C@@H](CC(C)C)C(=O)N[C@@H](C)C(=O)N[C@@H](CCC(N)=O)C(=O)N[C@H](C(N)=O)C(C)C)[C@@H](C)CC)[C@@H](C)O)[C@@H](C)CC)[C@@H](C)CC)C(C)C)C(C)C

Biological target: T1, human CRHR1 (corticotropin releasing …)
Experiment: cell-based or functional assay

Molecule | Average EC50 (nM), cell-based cAMP assay, Y79 cells with endogenous human CRHR1 [nM]
B1 | ~10000
B2 | > 10000
B3 | > 100000
B4 | 33900
B5 | ~100000
B6 | > 100000
B7 | > 100000
B8 | > 100000

Biological target: human CRHR1 (corticotropin releasing hormone receptor-1) (human) (UniProt P34998)
Experiment: cell-based or functional assay

Molecule | Average EC50 (nM), cell-based cAMP assay, Y79 cells with endogenous human CRHR1 [nM]
human UCN1 (urocortin-1) (from UniProt P55089 83-122) (ligand) | 7.3
